The values that follow come from article PMC9001643 (Scientific Reports, 2022).

Broadly, the stoichiometry N is the number of molecules, sites or subunits per partner or assembly.

The data set deals with the molecule itself. In words: crystal structure; His6-dmJMJD7.Mn(II).ligand complexes (2OG, succinate, N-oxalylglycine, 2,4-PDCA, N-oxalyl-D-alanine, N-oxalyl-D-phenylalanine); sitting drops at 25 °C, 0.1 M Bis-Tris pH 5.4, 0.3 M magnesium chloride, 18-23% PEG 3350; two molecules per asymmetric unit, space group P2_(1).

B1: Drosophila melanogaster Jumonji domain-containing 7 (His6-dmJMJD7) (enzyme, UniProt Q9VU77 1-316, looked up)
chain: MSEVERALDVLLQEAEELCIGSSVVELDRIPTALEFCREFYSKNQPVVIRKALNWPAIGKWTPKYLIEALGDRSVDVAITPNGYADGLATQNGQEYFVLPLETKMKLSEVVRRLDDPTGAVHYIQKQNSNLSVDLPELAADLRVSDLDFAQQSFNKPPDAVNFWLGDERAVTSMHKDPYENVYCVISGHKDFVLIPPHQLSCVPRGIYPTGVYKTSDSGQFYIEPLRDEEGSDQFTEWVSVDPLSPDLAKYPEYARAKPLKVRVHAGDILYLPNYWFHHVSQSHKCIAVNFWYDLDYDSRYCYYRMLEQMTSARSG
notes: JMJD7 of Drosophila melanogaster, full length, aa 1-316, UniProt Q9VU77, cloned into pET28a; Homodimer in the crystals; the two monomers are covalently linked by a disulfide bond Cys37-Cys37'; Crystallised with Mn(II) in place of Fe(II) and with 2OG, succinate or a 2OG analogue; also called JMJD7_DROME; not shown: His6, N-terminal, kept
Turning to B1, the “stoichiometry N” value came to 2.
